{"source": "paper PMC9297526", "target": "human alpha-thrombin (human, UniProt P00734;P00734 328-363;364-622)", "test": "ITC"}
{"binder": "GGTTGGTGTGGTTGG (structured_DNA)", "note": "[TBA]", "values": [{"measurement": "Ka", "result": "8.46e+06", "unit": "M⁻¹"}]}
